Measurements taken from patent publication US20160289285A1 (Molecular Partners, published 2016).
Numbering of substitutions follows the chain as printed.

B1: Protein #12 (designed binder)
chain: MRGSHHHHHHGSDLGKKLLEAARAGQDDEVRILMANGADVNAFDWMGWTPLHLAAHEGHLEIVEVLLKNGADVNATDVSGYTPLHLAAADGHLEIVEVLLKHGADVNTKDNTGWTPLHLSADLGHLEIVEVLLKNGADVNAQDKFGKTAFDISIDNGNEDLAEILQKAA
B2: Protein #13 (designed binder)
chain: MRGSHHHHHHGSDLDKKLLEAARAGQDDEVRILLKAGADVNAKDYLGWTPLHLAAHEGHLEIVEVLLKAGADVNAKDVSGYTPLHLAAADGHLEIVEVLLKAGADVNAKDNTGWTPLHLSADLGHLEIVEVLLKAGADVNAQDKFGKTAFDISIDNGNEDLAEILQKAA
B3: Protein #16 (designed binder)
chain: MRGSHHHHHHGSDLDKKLLEAARAGQDDEVRILMANGADVNAKDSTGYTPLHLAAPWGHLEIVEVLLKAGADVNAKDYQGWTPLHLAAAVGHLEIVEVLLKAGADVNAQDKSGKTPADLAADAGHEDIAEVLQKAA
B4: Protein #21 (designed binder)
chain: B3 chain with M34L, A35K, N36A, Y48W, L60P
B5: Protein #14 (designed binder)
chain: MRGSHHHHHHGSDLGKKLLEAARAGQDDEVRILMANGADVNTADSTGWTPLHLAAPWGHPEIVEVLLKNGADVNAHDYQGWTPLHLAATLGHLEIVEVLLKHGADVNAQDKFGKTAFDISIDNGNEDLAEILQKAA
B6: Protein #15 (designed binder)
chain: B5 chain with A55V, P60L, N69Y, H76K, Y78F, T89A, L90I, L93Q, H102N
B7: Protein #17 (designed binder)
chain: B5 chain with T42A, A43R, H76A, Y78F, T89A, L90V
B8: Protein #22 (designed binder)
chain: B5 chain with G15D, T42A, A43K, P60L, N69A, H76K, Y78F, T89A, L90V, H102A
B9: Protein #33 (designed binder)
chain: MRGSHHHHHHGSDLGKKLLEAARAGQDDEVRILMANGADVNAQDRWGDTPLHLAASAGHLKIVEVLLKYGADVNADDVFGDTPLHLAASLGHLEIVEVLLKYGADVNADDYAGNTPLHLAANTGHLEIVEVLLKHGADVNAQDKFGKTAFDISIDNGNEDLAEILQKAA
B10: Protein #34 (designed binder)
chain: B9 chain with H135Y
B11: Protein #24 (designed binder)
chain: MRGSHHHHHHGSDLGKKLLEAARAGQDDEVRILMANGADVNAKDRFGDTPLHLAADIGHLEIVEVLLKAGADVNAKDWFGNTPLHLAASFGHLEIVEVLLKAGADVNAKDDYGNTPLHLAANTGHLEIVEVLLKAGADVNAQDKFGKTAFDISIDNGNEDLAEILQKAA
B12: Protein #25 (designed binder)
chain: MRGSHHHHHHGSDLGKKLLEAARAGQDDEVRILMANGADVNAKDRYGDTPLHLAADIGHLEIVEVLLKAGADVNAEDYFGNTPLHLAASYGHLEIVEVLLKAGADVNAKDDYGNTPLHLAANTGHLEIVEVLLKAGADVNAQDKSGKTPADLAADAGHEDIAEVLQKAA
B13: Protein #27 (designed binder)
chain: B12 chain with M34L, A35K, N36A, I57A, E61K, Y90A, Y112A, E127K
B14: Protein #30 (designed binder)
chain: MRGSHHHHHHGSDLGKKLLEAARAGQDDEVRILMANGADVNTHDNFGDTPLHLAASIGHLEIVEVLLKHGADVNAFDSYGDTPLHLAASSGHLEIVEVLLKYGADVNALDYNGNTPLHLAANSGRLEIVEVLLKHGADVNAQDKFGKTAFDISIDNGNEDLAEILQKAA
B15: Protein #31 (designed binder)
chain: MRGSHHHHHHGSDLGKKLLEAARAGQDDEVRILMANGADVNAVDAWGDTPLHLAASIGHLEIVEVLLKNGADVNAADYYGDTPLHLAASAGHLEIVEVLLKYGADVNAQDDNGNTPLHLAANTGRLEIVEVLLKHGADVNAQDKFGKTAFDISIDNGNEDLAEILQKAA
B16: Protein #32 (designed binder)
chain: MRGSHHHHHHGSDLGKKLLEAARAGQDDEVRILMANGADVNAIDTWGNTPLHLAADYGHLEIVEVLLKNGADVNALDWFGDTPLHLAASLGHLEIVEVLLKNGADVNAVDTYGNTPLHLAANTGRLEIVEVLLKYGADVNAQDKFGKTAFDISIDNGNEDLAEILQKAA
B17: Protein #35 (designed binder)
chain: MRGSHHHHHHGSDLGKKLLEAARAGQDDEVRILMANGADVNANDFLGLTPLHLAASTGHLEIVEVLLKYGADVNAIDAYGHTPLHLAANNGHLEIVEVLLKYGADVNAIDHFGYTPLHLAAMFGHLEIVEVLLKNGADVNAQDKFGKTAFDISIDNGNEDLAEILQKAA
B18: Protein #36 (designed binder)
chain: MRGSHHHHHHGSDLGKKLLEAARAGQDDEVRILMANGADVNANDSSGLTPLHLAAFYGHLEIVEVLLKYGADVNADDDWGHTPLHLAAHYGHLEIVEVLLKHGADVNAIDTRGLTPLHLAAIAGHLEIVEVLLKYGADVNAQDKFGKTAFDISIDNGNEDLAEILQKAA
B19: Protein #37 (designed binder)
chain: MRGSHHHHHHGSDLGKKLLEAARAGQDDEVRILMANGADVNASDDTGLTPLHLAANRGHLEIVEVLLKHGADVNANDFAGMTPLHLAANVGHLEIVEVLLKYGADVNAHDDYGLTPLHLAANWRHLEIVEVLLKNGADVNAQDKFGKTAFDISIDNGNEDLAEILQKAA
B20: Protein #51 (designed binder)
chain: MRGSHHHHHHGSDLGKKLLEAARAGQDDEVRILMANGADVNAKDYFSHTPLHLAARNGHLKIVEVLLKAGADVNAKDFAGKTPLHLAANDGHLEIVEVLLKHGADVNAQDIFGKTPADIAADAGHEDIAEVLQKAA
B21: Protein #43 (designed binder)
chain: MRGSHHHHHHGSDLGKKLLEAARAGQDDEVRILMANGADVNAADYFSHTPLHLAARDGHLKIVEVLLKYGADVNASDFAGKTPLHLAANDGHLEIVEVLLKHGADVNAQDIFGKTAFDISIDNGNEDLAEILQKAA
B22: Protein #44 (designed binder)
chain: B20 chain with G15D, K61E
B23: Protein #45 (designed binder)
chain: B20 chain with K61E
B24: Protein #46 (designed binder)
chain: B20 chain with M34L, N36A
B25: Protein #47 (designed binder)
chain: B20 chain with G15D
B26: Protein #48 (designed binder)
chain: B20 chain with M34L, A35K, N36A, H102A
B27: Protein #49 (designed binder)
chain: B20 chain with I32E, M34L, A35K, N36A, H102A
B28: Protein #50 (designed binder)
chain: B20 chain with I32E, M34L, A35K, N36A, D90E, H102A
B29: Protein #52 (designed binder)
chain: MRGSHHHHHHGSDLDKKLLEAARAGQDDEVRILMANGADVNAKDERGTTPLHLAAVYGHLEIVEVLLKAGADVNAKNETGYTPLHLADSSGHLEIVEVLLKHSADVNAQDKSGKTPADLAADAGHEDIAEVLQKAA
B30: Protein #54 (designed binder)
chain: B29 chain with H102A, S103G
B31: Protein #55 (designed binder)
chain: B29 chain with S103G
B32: Protein #56 (designed binder)
chain: B29 chain with H102A
B33: Protein #40 (designed binder)
chain: B21 chain with N36S, N74D, G103D, I111K
B34: Protein #41 (designed binder)
chain: B21 chain with K17E, S47G, D57N, D118E
B35: Protein #42 (designed binder)
chain: B21 chain with S47G, I111K
B36: Protein #53 (designed binder)
chain: MRGSHHHHHHGSDLGKKLLEAARAGQDDEVRFLMANGADVNAADERGTTPLHLAAVYGHLEIVEVLLKNGADVNAQNETGYTPLHLADSSGHLEIVEVLLKHSADVNAQDKFGKTAFDISIDNGNEDLAEILQKAA
B37: Protein #57 (designed binder)
chain: MRGSHHHHHHGSDLGKKLLEAARAGQDDEVRILMANGADVNAKDYFSHTPLHLAARNGHLKIVEVLLKAGADVNAKDFAGKTPLHLAANDGHLEIVEVLLKHGADVNAQDIFGKTPADIAADAGHEDIAEVLQKLGSPTPTPTTPTPTPTTPTPTPTGSRSDLDITGLKLN

Molecular target: T1, human VEGF-A (human, UniProt P15692-4 27-191, limits assumed)
T1 construct: Recombinant, bought or produced in CHO or Pichia pastoris; also called hVEGF-A
Assay: SPR (ProteOn)
Experimental: (§1) SPR was measured using a ProteOn instrument (BioRad) and measurement was performed according standard procedures known to the person skilled in the art.

T1 sequence (P15692 other isoform, or with tags, fused parts or gaps limits assumed): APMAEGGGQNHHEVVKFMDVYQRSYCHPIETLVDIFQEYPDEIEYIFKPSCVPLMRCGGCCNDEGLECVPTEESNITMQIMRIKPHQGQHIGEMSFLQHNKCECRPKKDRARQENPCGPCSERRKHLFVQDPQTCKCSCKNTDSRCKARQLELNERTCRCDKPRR

Row | Binder | Kd [nM] | binding result
1 | B1 | 0.094 | 
2 | B2 | 0.096 | 
3 | B3 | 0.141 | 
4 | B4 |  | binds
5 | B5 |  | binds
6 | B6 |  | binds
7 | B7 |  | binds
8 | B8 |  | binds

Molecular target: T2, human HGF (human, UniProt P14210 32-728)
T2 construct: also called hepatocyte growth factor
Assay: SPR (ProteOn)
Experimental: as §1

T2 sequence (P14210 32-728 limits assumed): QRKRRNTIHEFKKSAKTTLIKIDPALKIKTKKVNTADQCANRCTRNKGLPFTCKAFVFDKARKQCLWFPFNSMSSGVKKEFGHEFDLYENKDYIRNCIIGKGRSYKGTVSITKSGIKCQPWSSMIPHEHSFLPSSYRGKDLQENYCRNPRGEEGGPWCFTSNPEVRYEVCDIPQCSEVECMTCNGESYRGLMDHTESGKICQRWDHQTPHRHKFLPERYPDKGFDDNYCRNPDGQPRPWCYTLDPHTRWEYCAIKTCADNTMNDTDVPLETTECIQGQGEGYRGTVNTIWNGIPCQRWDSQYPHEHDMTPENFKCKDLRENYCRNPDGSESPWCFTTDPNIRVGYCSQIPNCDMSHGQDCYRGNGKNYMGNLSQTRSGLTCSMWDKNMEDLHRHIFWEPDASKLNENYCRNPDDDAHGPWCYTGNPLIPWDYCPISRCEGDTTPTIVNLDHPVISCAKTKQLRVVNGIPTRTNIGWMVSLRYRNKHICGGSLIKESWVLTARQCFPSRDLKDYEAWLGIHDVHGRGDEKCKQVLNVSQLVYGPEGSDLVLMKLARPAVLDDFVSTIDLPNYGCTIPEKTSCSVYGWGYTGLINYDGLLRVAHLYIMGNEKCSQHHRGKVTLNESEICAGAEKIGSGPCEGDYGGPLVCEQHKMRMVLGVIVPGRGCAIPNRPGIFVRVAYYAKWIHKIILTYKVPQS

Row | Binder | binding result | Kd [nM]
9 | B9 | binds | 
10 | B10 | binds | 
11 | B11 |  | 0.163
12 | B12 |  | 0.066
13 | B13 |  | 0.129
14 | B14 | binds | 
15 | B15 | binds | 
16 | B16 | binds | 
17 | B17 | binds | 
18 | B18 | binds | 
19 | B19 | binds | 

Molecular target: T3, human serum albumin (human, UniProt P02768 25-609)
T3 construct: For SEC-MALS purified from CSL Behring 20% solution; also called HSA; SA (human)
Assay: SPR (ProteOn)
Experimental: as §1

T3 sequence (P02768 25-609 limits assumed): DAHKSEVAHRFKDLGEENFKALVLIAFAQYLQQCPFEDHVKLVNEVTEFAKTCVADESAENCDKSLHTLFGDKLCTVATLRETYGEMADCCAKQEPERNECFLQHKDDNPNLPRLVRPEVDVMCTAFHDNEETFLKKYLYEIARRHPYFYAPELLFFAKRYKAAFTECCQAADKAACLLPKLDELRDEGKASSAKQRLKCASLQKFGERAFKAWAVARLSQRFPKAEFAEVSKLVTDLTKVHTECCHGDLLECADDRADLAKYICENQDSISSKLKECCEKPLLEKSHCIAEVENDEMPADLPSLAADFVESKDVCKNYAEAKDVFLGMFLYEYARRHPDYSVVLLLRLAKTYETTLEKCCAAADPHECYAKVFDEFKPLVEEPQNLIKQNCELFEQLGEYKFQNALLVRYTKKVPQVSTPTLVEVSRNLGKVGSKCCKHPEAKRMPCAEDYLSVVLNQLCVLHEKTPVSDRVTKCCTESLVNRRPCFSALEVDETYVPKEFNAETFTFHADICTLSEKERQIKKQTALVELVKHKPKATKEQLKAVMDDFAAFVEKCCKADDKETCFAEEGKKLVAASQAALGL

Row | Binder | Kd [nM] | binding result
20 | B20 | 14 | 
21 | B21 |  | binds
22 | B22 | 26 | 
23 | B23 | 13 | 
24 | B24 | 22 | 
25 | B25 | 27 | 
26 | B26 | 20 | 
27 | B27 | 15 | 
28 | B28 | 27 | 
29 | B29 | 6 | 
30 | B30 | 11 | 
31 | B31 | 15 | 
32 | B32 |  | binds
33 | B33 |  | binds
34 | B34 |  | binds
35 | B35 |  | binds
36 | B36 |  | binds
37 | B37 |  | binds
